This is an account of results in patent US11091749B2, “Deimmunized lysostaphin and methods of use” (TRUSTEES OF DARTMOUTH COLLEGE, priority 2014, dated 2021).

Series [1] in a line: Thermostability by differential scanning fluorimetry. The series is classed as physicochemical. The protocol: The relative thermostability of the lysostaphin variants was determined by differential scanning fluorimetry, as previously described (Niesen, et al. (2007) Nat. Protocols 2:2212-2221). Proteins and SYPRO Orange were diluted in PBS (final concentrations of 100 μg/ml and 5× in 20 μl reaction volume, respectively), and fluorescence was quantified at 1-degree increments from 25 to 94° C. using an Applied Biosystems ABI 7500 fast real-time PCR system. The reactions were performed using PCR Plates for Fast Thermocyclers (VWR; Radnor, Pa.). Fluorescence was quantified using the preset TAMRA parameters. Melting temperatures were determined by data analysis with the ‘DSF Analysis v3.0.xlsx’ EXCEL sheet and GraphPad Prism v.6.02 software.
(In general: In DSF a fluorescence change marks the thermal transition of the protein.)

A short description of series [2]: P. pastoris expression level by SDS-PAGE. The settings on record: densitometry of SDS-PAGE gels. The protocol: After DH5a clones were confirmed for the presence of correct catalytic domain mutation by sequence analysis, the purified plasmid was digested with SacI High-Fidelity restriction enzyme prior to electroporation into P. pastoris strain GS115. The resulting transformants were grown on MD plates (1.34% yeast nitrogen base, 0.000004% biotin, 2% dextrose and 1% agar). For expression studies, clones were grown in BMGY media (1% yeast extract, 2% peptone, 1.34% yeast nitrogen base, 0.000004% biotin, 1% glycerol, 100 mM phosphate buffer, pH 6) at 30° C. in 500 ml shake flasks covered with four layers of cheese cloth for enhanced oxygen flow to the yeast. […] The purity of lysostaphin was determined using SDS-PAGE. The protein concentration was quantified using ND-1000 Spectrophotometer (NanoDrop Technologies; Wilmington, Del.). To ensure accuracy, protein absorbance measure was adjusted using the absorbance adjustment factor of 0.4 for both wild-type lysostaphin and its variants. Briefly, the adjustment factor was calculated as the inverse of the reported Abs 0.1% (=1 g/L) value (ProtParam, ExPASy).
The amount of protein used in each assay was estimated from SDS-PAGE gels. […] The gel was stained using GELCODE Blue Stain Reagent from Thermo Fisher Scientific (Carlsbad, Calif.) and bands quantified using Quantity Tools from Image Lab 5.1 software (Bio-Rad Laboratories; Hercules, Calif.). […]

Series [3] concerns pooled splenocytes. In words: Transgenic DR4 murine immunogenicity study (memory response, splenocyte proliferation). Format: in vivo. The following applies: wild-type LST primed mice, 100 μg rechallenge. Here is the method: Twelve female 6-8 week old DR4 transgenic mice (Abb Knockout/Transgenic HLA-DR4; B6.129S2-H2-Ab1tm1GruTg(HLA-DRA/H2-Ea,HLA-DRB1*0401/H2-Eb)1Kito; Taconic Farms, Germantown, N.Y.) were divided into four groups of three each and immunized with 50 μl subcutaneous injections of wild-type LST using one of the following four schemes: (i) initial immunization with 100 μg enzyme in CFA, followed by 100 μg boosts in incomplete Freund's adjuvant (IFA) on days 14 and 28; (ii) initial immunization with 20 μg enzyme in CFA, followed by 20 μg boosts in IFA on days 14 and 28; (iii) initial immunization with 100 μg enzyme in PBS buffer, followed by 100 μg boosts in PBS buffer on days 7, 14, 21 and 28; (iv) initial immunization with 20 μg enzyme in PBS buffer, followed by 20 μg boosts in PBS buffer on days 7, 14, 21 and 28. Serum IgG antibody titers against wild-type LST were measured on days 13, 20, 27, 34, and 62. […] Mice were housed without further manipulation until week 23 of the study, at which time serum IgG antibody titers were again measured and mice were divided into two experimental arms having equivalent average antibody titers. Note that during the week 9 to week 23 recovery period, two mice (the lowest titer 100 μg no adjuvant and one of the high titer 100 μg adjuvant) began suffering hair loss, weight loss, and reduced mobility and were sacrificed as per the IACUC approved protocol. […]

“Wild-Type: wild-type lysostaphin (SEQ ID NO:49) produced in P. pastoris; aglycosylated Ser126Pro backbone in the design studies [reference compound]”: the Tm in series [1] (SYPRO Orange, PBS) was determined as 59.2 °C; in series [1] (biological duplicates), 59.0 °C. For the same substance, the “Expression Level (% WT)” value in series [2] is listed as 100 % WT. Further, the stimulation index in series [3] is given as 1.8 fold.
